Measurements as given in patent publication US20180250426A1 (GEORGIA STATE UNIVERSITY RESEARCH FOUNDATION, published 2018).

B1: CA1.CD2-52I-Bom (designed binder)
chain: RDSGTVWGALGHGIELNIPNFQMTDDIDEVRWERGSTLVAEFKRKMKPFLKSGGSGGGNQWAVGHLMGGSGGGAFEIDANGDLDIKNLTRDDSGTYNVTVYSTNGTRILNKALDLRILE
notes: also called CA1.Bom
B2: CA1.CD2 (designed binder)
chain: RDSGTVWGALGHGIELNIPNFQMTDDIDEVRWERGSTLVAEFKRKMKPFLKSGAFEIDANGDLDIKNLTRDDSGTYNVTVYSTNGTRILNKALDLRILE
notes: domain: domain 1; 12 kDa, expressed in E. coli; in most assays loaded with Gd3+; also called Gd-CA1.CD2

What was measured:
GRPR (GRP receptor) [1] = target: T1, GRPR (GRP receptor) (UniProt P30550 1-384, limits assumed); assay: confocal immunofluorescence with a CD2 antibody and Alexa Fluor 488 on GRPR-high PC-3 and DU145 cells at 37 °C; GRPR-low H441 cells as control
T1 construct: whole, on cells; also called gastrin release peptide receptor
Method: (§1) In the second day, fresh medium was changed. Contrast agents were incubated with cells at different time point at 37° C. […] After cells were rinsed in PBS for three times, 0.2% Triton X-100 was added to permeablize cells for 10 minutes. […] After three time washes, CD2 antibody was used as primary antibody.

HER2 = target: T2, HER2 (human, UniProt P04626 23-1255); assay: immunofluorescence staining of AU565 cells (HER2 high) with PAbPGCA1
T2 construct: whole, on cells; also called cell surface HER2
Text: We used two cancer cell lines for the binding analyses. AU565 is derived from breast carcinoma. EMT6 is a mouse mammary tumor cell line. AU565 cells express very high levels of HER2. The EMT is regarded as a HER2 negative cell line.

GRPR (GRP receptor) [2] = target: T1, GRPR (GRP receptor); assay: confocal immunofluorescence with a CD2 antibody and Alexa Fluor 488 on GRPR-high PC-3 and DU145 cells; CA1-CD2 without the bombesin sequence as control
Method: as §1

T1 sequence (P30550 whole entry): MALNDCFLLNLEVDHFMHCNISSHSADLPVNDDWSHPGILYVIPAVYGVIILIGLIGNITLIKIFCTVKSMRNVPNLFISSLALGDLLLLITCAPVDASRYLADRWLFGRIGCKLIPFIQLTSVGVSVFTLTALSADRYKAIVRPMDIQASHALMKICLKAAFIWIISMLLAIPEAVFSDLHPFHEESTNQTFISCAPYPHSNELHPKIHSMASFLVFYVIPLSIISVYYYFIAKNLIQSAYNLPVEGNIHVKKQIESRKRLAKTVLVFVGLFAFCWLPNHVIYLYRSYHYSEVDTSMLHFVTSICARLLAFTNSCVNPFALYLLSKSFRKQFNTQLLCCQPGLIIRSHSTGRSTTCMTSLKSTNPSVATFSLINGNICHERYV

| Binder | binding result (GRPR (GRP receptor) [1]) | binding result (HER2) | binding result (GRPR (GRP receptor) [2]) |
| --- | --- | --- | --- |
| B1 | binds | – | – |
| B2 | – | no binding | no binding |
